Here are results for 6 molecules from patent US20240190962A1 (IMMUNOWAKE, published 2024).

Substitutions are numbered along the chain they refer to. Names and notes keep the numbering of the source. Where only a bound is given, the exact number is not on record here.

Assay [1] has as its target human IL-12 receptor complex (IL-12Rβ1, IL-12Rβ2) (human, UniProt P42701 24-662; Q99665 24-862). Description: cell-based or functional assay.
For assay [2], the target named is T1, human IL-2 receptor (IL-2Rα, IL-2Rβ, IL-2Rγ) (human, UniProt P01589 22-272; P14784 27-551; P31785 23-369).
T1 sequence (looked up) 1: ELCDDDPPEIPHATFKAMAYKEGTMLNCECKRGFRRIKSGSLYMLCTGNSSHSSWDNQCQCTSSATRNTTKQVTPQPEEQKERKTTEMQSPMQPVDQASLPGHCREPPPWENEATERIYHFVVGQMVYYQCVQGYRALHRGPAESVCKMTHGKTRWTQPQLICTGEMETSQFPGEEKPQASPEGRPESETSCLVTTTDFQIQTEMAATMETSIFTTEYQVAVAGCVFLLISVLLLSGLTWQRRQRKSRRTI
T1 sequence (looked up) 2: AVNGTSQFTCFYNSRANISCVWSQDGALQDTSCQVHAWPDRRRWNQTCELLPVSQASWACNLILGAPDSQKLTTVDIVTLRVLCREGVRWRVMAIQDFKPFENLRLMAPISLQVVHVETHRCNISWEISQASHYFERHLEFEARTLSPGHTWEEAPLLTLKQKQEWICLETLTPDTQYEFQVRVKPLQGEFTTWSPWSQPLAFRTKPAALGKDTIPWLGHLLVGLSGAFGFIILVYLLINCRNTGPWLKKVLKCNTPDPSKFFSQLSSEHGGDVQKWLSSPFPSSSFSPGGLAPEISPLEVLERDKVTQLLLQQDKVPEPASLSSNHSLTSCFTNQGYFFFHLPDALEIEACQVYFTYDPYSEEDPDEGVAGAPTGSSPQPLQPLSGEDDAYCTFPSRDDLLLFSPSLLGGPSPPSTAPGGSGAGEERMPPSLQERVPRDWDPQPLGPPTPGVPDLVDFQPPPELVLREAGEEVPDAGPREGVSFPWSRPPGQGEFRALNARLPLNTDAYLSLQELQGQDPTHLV
T1 sequence (looked up) 3: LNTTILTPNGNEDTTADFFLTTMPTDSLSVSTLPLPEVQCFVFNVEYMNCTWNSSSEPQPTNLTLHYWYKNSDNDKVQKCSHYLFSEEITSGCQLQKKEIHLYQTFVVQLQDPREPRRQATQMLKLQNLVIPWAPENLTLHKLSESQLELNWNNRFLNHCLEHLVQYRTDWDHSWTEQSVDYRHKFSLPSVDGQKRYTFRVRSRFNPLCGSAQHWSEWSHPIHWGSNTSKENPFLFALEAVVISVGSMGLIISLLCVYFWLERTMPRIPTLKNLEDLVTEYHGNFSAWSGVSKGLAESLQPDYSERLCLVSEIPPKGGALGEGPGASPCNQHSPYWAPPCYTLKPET
Description: cell-based or functional assay.

human IL-12 receptor complex (IL-12Rβ1, IL-12Rβ2), sequence (Q99665 24-862, chain 2 of 2, other chains not shown): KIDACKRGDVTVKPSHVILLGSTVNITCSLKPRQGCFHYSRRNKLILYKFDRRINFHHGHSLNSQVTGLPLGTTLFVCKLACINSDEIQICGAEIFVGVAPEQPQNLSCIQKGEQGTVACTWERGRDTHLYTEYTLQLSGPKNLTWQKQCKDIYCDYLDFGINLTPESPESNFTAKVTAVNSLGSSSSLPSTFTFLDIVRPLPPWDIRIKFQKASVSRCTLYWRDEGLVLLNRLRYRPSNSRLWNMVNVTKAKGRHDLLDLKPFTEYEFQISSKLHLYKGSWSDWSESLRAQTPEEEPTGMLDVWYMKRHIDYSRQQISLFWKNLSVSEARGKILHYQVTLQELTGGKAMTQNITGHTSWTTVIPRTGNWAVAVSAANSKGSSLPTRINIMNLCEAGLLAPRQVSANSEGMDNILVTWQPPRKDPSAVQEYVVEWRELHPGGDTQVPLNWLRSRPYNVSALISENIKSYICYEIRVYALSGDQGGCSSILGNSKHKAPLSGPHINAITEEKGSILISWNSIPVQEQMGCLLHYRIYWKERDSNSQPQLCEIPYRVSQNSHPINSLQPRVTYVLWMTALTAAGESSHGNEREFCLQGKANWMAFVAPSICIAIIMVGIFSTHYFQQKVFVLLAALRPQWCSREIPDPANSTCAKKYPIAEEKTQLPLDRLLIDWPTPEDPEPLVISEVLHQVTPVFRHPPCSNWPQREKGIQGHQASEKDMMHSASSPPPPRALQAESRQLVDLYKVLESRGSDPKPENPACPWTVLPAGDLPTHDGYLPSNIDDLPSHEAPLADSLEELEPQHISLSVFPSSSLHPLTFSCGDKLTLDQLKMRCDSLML

B1: IL-12(E59A/F60A)/PD-L1(mut2)-Fc (Fc fusion)
chain 1: FTVTVPKDLYVVEYGSNMTIECKFPVEKQLDLAALQVYWMMEDKNIIQFVHGEEDLKVQHSSYRQRARLLKDQLSLGNAALQITDVKLQDAGVYTCLIAYKGADYKRITVKVNAPYNKINQRILVVDPVTSEHELTCQAEGYPKAEVIWTSSDHQVLSGKTTTTNSKREEKLFNVTSTLRINTTTNEIFYCTFRRLDPEENHTAELVIPELPLAHPPNERGGGGSGGGIWELKKDVYVVELDWYPDAPGEMVVLTCDTPEEDGITWTLDQSSEVLGSGKTLTIQVKAAGDAGQYTCHKGGEVLSHSLLLLHKKEDGIWSTDILKDQKEPKNKTFLRCEAKNYSGRFTCWWLTTISTDLTFSVKSSRGSSDPQGVTCGAATLSAERVRGDNKEYEYSVECQEDSACPAAEESLPIEVMVDAVHKLKYENYTSSFFIRDIIKPDPPKNLQLKPLKNSRQVEVSWEYPDTWSTPHSYFSLTFCVQVQGKSKREKKDRVFTDKTSATVICRKNASISVRAQDRYYSSSWSEWASVPCSGGGGSGGGSGGGGSRNLPVATPDPGMFPCLHHSQNLLRAVSNMLQKARQTLEFYPCTSEEIDHEDITKDKTSTVEACLPLELTKNESCLNSRETSFITNGSCLASRKTSFMMALCLSSIYEDLKMYQVEFKTMNAKLLMDPKRQIFLDQNMLAVIDELMQALNFNSETVPQKSSLEEPDFYKTKIKLCILLHAFRIRAVTIDRVMSYLNASGGGGSGGGDKTHTCPPCPAPEDEGGPSVFLFPPKPKDTLMISRTPEVTCVVVDVSHEDPEVKFNWYVDGVEVHNAKTKPREEQYNSTYRVVSVLTVLHQDWLNGKEYKCKVSNKALPAPIEKTISKAKGQPREPQVYVYPPSREEMTKNQVSLTCLVKGFYPSDIAVEWESNGQPENNYKTTPPVLDEDGSFALVSKLTVDKSRWQQGNVFSCSVMHEALHNHYTQKSLSLSPGK
chain 2: FTVTVPKDLYVVEYGSNMTIECKFPVEKQLDLAALQVYWMMEDKNIIQFVHGEEDLKVQHSSYRQRARLLKDQLSLGNAALQITDVKLQDAGVYTCLIAYKGADYKRITVKVNAPYNKINQRILVVDPVTSEHELTCQAEGYPKAEVIWTSSDHQVLSGKTTTTNSKREEKLFNVTSTLRINTTTNEIFYCTFRRLDPEENHTAELVIPELPLAHPPNERGGGGSGGGDKTHTCPPCPAPEKKGGPSVFLFPPKPKDTLMISRTPEVTCVVVDVSHEDPEVKFNWYVDGVEVHNAKTKPREEQYNSTYRVVSVLTVLHQDWLNGKEYKCKVSNKALPAPIEKTISKAKGQPREPQVYVLPPSREEMTKNQVSLLCLVKGFYPSDIAVEWESNGQPENRYMTWPPVLDSDGSFFLYSKLTVDKSRWQQGNVFSCSVMHEALHNHYTQKSLSLSPGK
With B1, in assay [1], the “IL-12 biological activity, HEK-IL-12” value is under 0.2% and the “IL-12 biological activity, HEK-IL-12-PD-1” value came out at 24%. Also, in assay [2], the “IL-2 biological activity, HEK-IL-2” value was under 0.1% and the “IL-2 biological activity, HEK-IL-2-PD-1” value is under 0.1%.

B2: IL-2(R38D/K43E/E61R/Q126T)/IL-12(E59A/F60A)/PD-L1(mut2)-Fc (Fc fusion)
chain 1: B1 chain 1
chain 2: FTVTVPKDLYVVEYGSNMTIECKFPVEKQLDLAALQVYWMMEDKNIIQFVHGEEDLKVQHSSYRQRARLLKDQLSLGNAALQITDVKLQDAGVYTCLIAYKGADYKRITVKVNAPYNKINQRILVVDPVTSEHELTCQAEGYPKAEVIWTSSDHQVLSGKTTTTNSKREEKLFNVTSTLRINTTTNEIFYCTFRRLDPEENHTAELVIPELPLAHPPNERGGGSGAPTSSSTKKTQLQLEHLLLDLQMILNGINNYKNPKLTDMLTFEFYMPKKATELKHLQCLERELKPLEEVLNLAQSKNFHLRPRDLISNINVIVLELKGSETTFMCEYADETATIVEFLNRWITFCTSIISTLTGGGGSGGGDKTHTCPPCPAPEKKGGPSVFLFPPKPKDTLMISRTPEVTCVVVDVSHEDPEVKFNWYVDGVEVHNAKTKPREEQYNSTYRVVSVLTVLHQDWLNGKEYKCKVSNKALPAPIEKTISKAKGQPREPQVYVLPPSREEMTKNQVSLLCLVKGFYPSDIAVEWESNGQPENRYMTWPPVLDSDGSFFLYSKLTVDKSRWQQGNVFSCSVMHEALHNHYTQKSLSLSPGK
Turning to B2, in assay [1], the “IL-12 biological activity, HEK-IL-12” value was under 0.2% and the “IL-12 biological activity, HEK-IL-12-PD-1” value worked out at 25%. Besides, in assay [2], the “IL-2 biological activity, HEK-IL-2” value was 2% and the “IL-2 biological activity, HEK-IL-2-PD-1” value was found to be 20%.

B3: IL-2(L18R/Q22E/R38D/K43E/E61R)/IL-12(E59A/F60A)/PD-L1(mut2)-Fc (Fc fusion)
chain 1: B1 chain 1
chain 2: B2 chain 2 with L243R, Q247E, T351Q
In the case of B3, in assay [1], the “IL-12 biological activity, HEK-IL-12” value was under 0.2% and the “IL-12 biological activity, HEK-IL-12-PD-1” value turned out to be 19%. In addition, in assay [2], the “IL-2 biological activity, HEK-IL-2” value came to 4% and the “IL-2 biological activity, HEK-IL-2-PD-1” value is 35%.

B4: PD-L1(mut2)-Fc/IL-12(E59A/F60A) (Fc fusion)
chain 1: FTVTVPKDLYVVEYGSNMTIECKFPVEKQLDLAALQVYWMMEDKNIIQFVHGEEDLKVQHSSYRQRARLLKDQLSLGNAALQITDVKLQDAGVYTCLIAYKGADYKRITVKVNAPYNKINQRILVVDPVTSEHELTCQAEGYPKAEVIWTSSDHQVLSGKTTTTNSKREEKLFNVTSTLRINTTTNEIFYCTFRRLDPEENHTAELVIPELPLAHPPNERGGGGSGGGDKTHTCPPCPAPEDEGGPSVFLFPPKPKDTLMISRTPEVTCVVVDVSHEDPEVKFNWYVDGVEVHNAKTKPREEQYNSTYRVVSVLTVLHQDWLNGKEYKCKVSNKALPAPIEKTISKAKGQPREPQVYVYPPSREEMTKNQVSLTCLVKGFYPSDIAVEWESNGQPENNYKTTPPVLDEDGSFALVSKLTVDKSRWQQGNVFSCSVMHEALHNHYTQKSLSLSPGKGGGGSGGGIWELKKDVYVVELDWYPDAPGEMVVLTCDTPEEDGITWTLDQSSEVLGSGKTLTIQVKAAGDAGQYTCHKGGEVLSHSLLLLHKKEDGIWSTDILKDQKEPKNKTFLRCEAKNYSGRFTCWWLTTISTDLTFSVKSSRGSSDPQGVTCGAATLSAERVRGDNKEYEYSVECQEDSACPAAEESLPIEVMVDAVHKLKYENYTSSFFIRDIIKPDPPKNLQLKPLKNSRQVEVSWEYPDTWSTPHSYFSLTFCVQVQGKSKREKKDRVFTDKTSATVICRKNASISVRAQDRYYSSSWSEWASVPCSGGGGSGGGSGGGGSRNLPVATPDPGMFPCLHHSQNLLRAVSNMLQKARQTLEFYPCTSEEIDHEDITKDKTSTVEACLPLELTKNESCLNSRETSFITNGSCLASRKTSFMMALCLSSIYEDLKMYQVEFKTMNAKLLMDPKRQIFLDQNMLAVIDELMQALNFNSETVPQKSSLEEPDFYKTKIKLCILLHAFRIRAVTIDRVMSYLNAS
chain 2: B1 chain 2
As to B4, in assay [1], the “IL-12 biological activity, HEK-IL-12” value amounted to 1% and the “IL-12 biological activity, HEK-IL-12-PD-1” value came to 25%. For the same molecule, in assay [2], the “IL-2 biological activity, HEK-IL-2” value is under 0.1% and the “IL-2 biological activity, HEK-IL-2-PD-1” value is under 0.1%.

B5: IL-2(L18R/Q22E/R38D/K43E/E61R)/PD-L1(mut2)-Fc/IL-12(E59A/F60A) (Fc fusion)
chain 1: B4 chain 1
chain 2: B2 chain 2 with L243R, Q247E, T351Q
B5: in assay [1], the “IL-12 biological activity, HEK-IL-12” value worked out at 2% and the “IL-12 biological activity, HEK-IL-12-PD-1” value worked out at 27%. In assay [2], the “IL-2 biological activity, HEK-IL-2” value was found to be 3% and the “IL-2 biological activity, HEK-IL-2-PD-1” value was 32%.

B6: IL-2(R38D/K43E/E61R/Q126T)/PD-L1(mut2)-Fc/IL-12(E59A/F60A) (Fc fusion)
chain 1: B4 chain 1
chain 2: B2 chain 2
For the molecule B6, in assay [1], the “IL-12 biological activity, HEK-IL-12” value came out at 1% and the “IL-12 biological activity, HEK-IL-12-PD-1” value stood at 30%. In assay [2], the “IL-2 biological activity, HEK-IL-2” value is 3% and the “IL-2 biological activity, HEK-IL-2-PD-1” value turned out to be 31%.
